These results are taken from PMC11856660 (PLOS Pathogens, 2025).

The series deals with the molecule itself. Description: […] (25 mM HEPES pH 8, 300 mM NaCl, 10% glycerol, 1 mM TCEP); […]; 20 °C; […].

B1: HCoV-229E nsp15 protein, wild type (recombinant, hexameric) (enzyme)
chain: GLENIAFNVVNKGSFVGADGELPVAISGDKVFVRDGNTDNLVFVNKTSLPTNIAFELFAKRKVGLTPPLSILKNLGVVATYKFVLWDYEAERPLTSFTKSVCGYTDFAEDVCTCYDNSIQGSYERFTLSTNAVLFSATAVKTGGKSLPAIKLNFGMLNGNAIATVKSEDGNIKNINWFVYVRKDGKPVDHYDGFYTQGRNLQDFLPRSTMEEDFLNMDIGVFIQKYGLEDFNFEHVVYGDVSKTTLGGLHLLISQVRLSKMGILKAEEFVAASDITLKCCTVTYLNDPSSKTVCTYMDLLLDDFVSVLKSLDLTVVSKVHEVIIDNKPWRWMLWCKDNAVATFYPQLQ
notes: source: T7 Express E. coli, purified (Ni-NTA, SEC)
On to B1, for which the stoichiometry N – broadly, the number of molecules, sites or subunits per partner or assembly – turned out to be 6.
